Experimental data from patent US20250051443A1 (NATIONAL RESEARCH COUNCIL OF CANADA, published 2025).

How the values were obtained:
Cynomolgus CD3 [1] = target: T1, Cynomolgus CD3 (Cynomolgus, UniProt Q95LI5 22-198; Q95LI7 23-181; Q95LI8 22-171); experiment: apparent KD (KDapp), flow cytometry titration on fresh cynomolgus PBMCs
T1 construct: whole, on cells; also called CD3 on Cynomolgus PBMCs; CD3 on HSC-F Cynomolgus T cell line
Description: (§1) To characterize potential cross-reactivity of the anti-human CD3 mAbs to NHP T cells, dose response flow cytometry titration studies were performed on both freshly obtained Cynomolgus PBMCs (Comparative Medicine and Animal Resources Centre—McGill University) or the Cynomolgus derived T cell line, HSC-F (Non-Human Primate Reagent Resource—NIH). Binding studies on fresh Cynomolgus PBMCs was performed on a subset of anti-CD3 mAbs (FIG. 4) whereas the Herpesvirus saimiri immortalized Cynomolgus T cell line HSC-F was employed for further evaluations (FIGS. 5A to 5C). KDapp values were calculated using a non-linear regression model of one-site binding with Hill slope (GraphPad Prism) and tabulated (Table 3b). Similar KDapp values for anti-CD3 mAb 1E2 obtained from binding to fresh Cynomolgus PBMCs (KDapp=0.28 nM) or the HSC-F T cell line (KDapp=0.39 nM) indicated the HSC-F cell line was a suitable surrogate for ex vivo NHP T cells.
Cynomolgus PBMCs were obtained from fresh ex vivo peripheral blood via density centrifugation and cultured overnight at 37° C./5% CO₂ in the presence of human recombinant IL2 (20 IU/mL; Novartis). Starting from 100 nM, graded doses of the anti-CD3 mAbs were incubated with 100K NHP PBMCs for 0.5 hours at 4° C. in flow staining buffer (SB; PBS/1% BSA/0.01% NaN3) in 96 w V-bottom plates. Following plate washing with SB (150 μL), cell pellets were resuspended in a 5 µg/mL solution of goat (Fab′)₂ anti-mouse IgG (H+L)− APC secondary antibody in SB, incubated at 4° C. (30 min.), washed 1× with SB, and resuspended for flow analysis. The commercial NHP cross-reactive SP34.2 anti-CD3 mAb (BD Biosciences), anti-human OKT-3 IgG2a (Biolegend—data not shown) and non-specific mIgG were employed as controls. 20K live events were acquired on a BD LSRFortessa flow analyzer and mean fluorescence intensities (MFI) calculated after subtraction of secondary antibody alone values. Using GraphPad Prism software, the data were analyzed using a one site specific binding with Hill slope non-linear regression model to calculate KDapp and BMax values (See Table 2).

Cynomolgus CD3 [2] = target: T1, Cynomolgus CD3; experiment: apparent KD (KDapp), flow cytometry titration on cynomolgus HSC-F T cell line
Description: as §1
HSC-F T cells obtained from the Non-Human Primate Reagent Resource (NIH) were maintained in culture in RPMI media containing 20% FBS and 40 IU/mL recombinant human IL2. 100K HSC-F cells in logarithmic cell growth were treated with graded doses of the anti-CD3 mAbs starting at 100 nM in staining buffer (SB; PBS/1% BSA/0.01% NaN3) for 2 hours at 4° C. in 96 w V-bottom plates. Following plate washing with SB, the cell pellets were resuspended with 25 μL of goat (Fab′)₂ anti-mouse IgG (H+L)− APC secondary antibody (final 5 μg/mL), incubated for 30 minutes at 4° C., followed by flow cytometry analysis. The commercial NHP cross-reactive SP34.2 anti-CD3 mAb (BD Biosciences), recombinant anti-human OKT-3 IgG2b (in house produced) and non-specific mIgG were employed as controls. 20K live events were acquired on a BD LSRFortessa flow analyzer and mean fluorescence intensities (MFI) calculated after subtraction of secondary antibody alone values. Using GraphPad Prism software, the data were analyzed using a one site specific binding with Hill slope non-linear regression model to calculate KDapp and BMax values (See Table 2).

Cynomolgus CD3 [3] = target: T1, Cynomolgus CD3; experiment: apparent KD (KDapp), flow cytometry titration on fresh cynomolgus PBMCs; second value in brackets, not explained

T1 sequence (Q95LI5 22-198, chain 1 of 3): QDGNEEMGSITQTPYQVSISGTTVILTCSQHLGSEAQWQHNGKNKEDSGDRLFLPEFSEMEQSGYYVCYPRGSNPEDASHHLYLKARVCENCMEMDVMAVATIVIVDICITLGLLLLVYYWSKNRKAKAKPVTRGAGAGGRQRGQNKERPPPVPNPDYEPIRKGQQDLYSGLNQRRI
T1 sequence (Q95LI7 23-181, chain 2 of 3): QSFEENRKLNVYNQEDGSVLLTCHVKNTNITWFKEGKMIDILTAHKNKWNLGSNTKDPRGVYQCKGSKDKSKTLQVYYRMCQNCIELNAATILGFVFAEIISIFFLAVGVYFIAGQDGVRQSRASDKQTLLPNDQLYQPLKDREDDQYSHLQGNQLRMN
T1 sequence (Q95LI8 22-171, chain 3 of 3): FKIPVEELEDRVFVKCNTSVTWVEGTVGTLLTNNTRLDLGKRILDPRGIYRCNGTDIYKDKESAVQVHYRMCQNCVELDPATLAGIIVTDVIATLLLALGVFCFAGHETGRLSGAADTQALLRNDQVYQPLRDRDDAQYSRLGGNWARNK

Binder | Kd (Cynomolgus CD3 [1]) [nM] | Kd (Cynomolgus CD3 [2]) [nM] | Kd (Cynomolgus CD3 [3]) [nM]
F282-2D5 (antibody, V domains shown, also called F282-2D5-2) VH: QVQLQQPGTELVKPGASVKLSCKASGYTFTSYWMHWVKQRPGQGLEWIGNINPSNGGTNYNENFKTKATLTVDKSSSTAYMQLSSLTSEDSAVYYCARDRSGQYYFDYWGQGTTLTVSS VL: DIVMSQSPSSLAVSAGEKVTMSCKSSQSLLNSRTRKNYLAWYQQKPGQSPKLLIYWASTRESGVPDRFTGSGSGTDFTLTISSVQAEDLAVYYCIQSYHLRTFGGGTILEIK | 0.11 |  | 
F332-7C9 (antibody, mouse IgG2a, V domains shown, also called F332-7C9-2; F332-7C9 (5C7, 7D10)) VH: QVQLQQSGPELVKPGASVRISCKASGYTFTSHYLHWVKQRPGQGFEWIGWIYPGDGNTRYNEKFKDRATLTADKSSSTAYLHLSSLTSEDSAVYFCARDAGYYFDYWGQGTTLAVSS VL: DIVMSQSPSSLAVSAGEKVTMSCKSSQSLLNSRTRKNYLAWYQQKPGQSLKVLIYWASTRESGVPDRFTGSGSGTDFTLTISSVQAEDLAVYYCKQSYSLRTFGGGTKLEIK |  | 0.36 | 
F332-3E9 (antibody, mouse IgG2a, V domains shown, also called F332-3E9-2; F332-3E9 (12G4)) VH: QVQLQQPGAELGKPGTSVKLSCKASGYTFTSYWIHWLKQRPGQGLEWIGNINPNGGSINCNEKFTTKATLTIDKSSSTAYMQLSTLTSEDFAVYYCTRDTSGQYYFDYWGQGTTLTVSS VL: DIMMSQSPSSLAVSAGEKVTMSCKSSQSLLNSRTRKNYLAWYQQKPGQSPKLLIYWASTRESGVPDRFTGSGSGTDFTLTISSVQAEDLAVYYCTQSYHLRTFGGGTKLEIK | 0.21 |  | 
F332-1C9 (antibody, mouse IgG2a, V domains shown, Sister clones 1A10, 5H8, 8B11 share the same entries; also called F332-1C9-2; F332-1C9 (1A10, 5H8, 8B11)) VH: QVQLQQPGAELGKPGTSVNLSCKASGYTFTSYWMHWVKQRPGQGLDWIGNINPNSGTTNYNEKFKSKATLTVDKSSSTAYMQLSTLTSEDSAVYYCTRDISGQYYFDYWGQGTSLTVSS VL: DIVMSQSPSSLAVSAGEKVTMSCKSSQSLLNSRTRKNYLAWYQQKPGQSPKLLIYWASTRESGVPDRFTGSGSGTDFTLIISSVQAEDLAVYYCKQSYSLRTFGGGTKLEIK | 0.25 |  | 0.26

Further lines, results first:

Kd (Cynomolgus CD3 [1]) [nM] | Kd (Cynomolgus CD3 [2]) [nM] | Kd (Cynomolgus CD3 [3]) [nM] | Binder
 | 0.37 |  | F332-7C5 (antibody, mouse IgG2a, V domains shown, also called F332-7C5-2; F332-7C5 (5E12, 10A8)) VH: QVQLQQPGAELGKPGTSVKLSCKASGYTFTSYWMHWVKQRPGQGLEWIGNINPSSGITNYNERFKNKATLTVDKSSTTAYMQLSILTSEDSAVYYCSRDISGQYYFNFWGQGTTLTVSS VL: DIVMSQSPSSLAVSAGEKVTMSCKSSQSLLNSRTRKNYLAWYQQKPGQSPKLLIYWASTRESGVPDRFTGTGSGTDFTLTISSVQAEDLAVYYCKQSYNLRTFGGGTKLEIK
 | 0.4 |  | F332-5F2 (antibody, mouse IgG2b, V domains shown, also called F332-5F2-2; F332-5F2 (6G8, 13A3)) VH: QVQLQQPGAELGKPGTSVKLSCKASGYTFTSYWMHWVKQRPGQGLEWIGNINPNGGDSNYNEKFKSKATLTVDKSSSTAYMQLSTLTSEDSAVYYCTRDISGQYYFDFWGQGTSLTVFS VL: DILMSQSPSSLAVSAGEQVTMSCKSSQSLLNSRTRKNYLAWYQQKPGQSPKLLIFWASTRKSGVPDRFTGSGSGTYFTLTISSVQAEDLAVYYCTQSYNLRTFGGGTKLEIK
0.15 |  |  | F332-4D6 (antibody, mouse IgG2a, V domains shown, also called F332-4D6-2; F322-4D6) VH: QVQLQQSGAELGKPGTSVKLSCKASGYTFTSYWIHWVKQRPGQGLEWIGNINPNSGSTNYNEKFKRKATLTADKSSSTAYMQLSTLTSEDFAVYYCTRDTSGQYYFDYWGQGTTLTVSS VL: DIVMSQSPSSLAVSAGEKVTMSCKSSQSLLNSRTRKNYLAWYQQKPGQSPKVLIYWASTRESGVPDRFTGSGSGTDFTLTISSVQAEDLAVYYCKQSYHLRTFGGGTKLEIK
 | 0.27 |  | F332-6D7 (antibody, mouse IgG2a, V domains shown, also called F332-6D7-2; F332-6D7 (7G4)) VH: QVQLQQPGAELGKPGTSVNLSCKASGYTFTSYWMHWVKQRPGQGLDWIGNINPNSGTTNYNEKFKSKATLTVDKSSSTAYMQLSTLTSEDSAVYYCTRDISGQYYFDYWGQGTSLTVSS VL: DIVMSQSPSSLAVSAGEKVTMSCKSSQSLLNSRTRKNYLAWYQQKPGQSPKLLIYWASTRESGVPDRFTGSGSGTDFTLTISSVQAEDLAVYYCKQSYSLRTFGGGSKLEIK
0.28 | 0.39 |  | F332-1E2 (antibody, mouse IgG2a, V domains shown, Sister clone 8C5 shares the same entries; also called F332-1E2-2; F332-1E2 (8C5)) VH: QVQLQQPGAELGKPGTSVKLSCKASGYTFTSYWIHWVKQRPGQGLEWVGNINPNSGSINYNEKFKNKATLTVDKSSSTAYMQLSTLTSEDFAVYYCTRDTSGQYYFDYWGQGTTLTVSS VL: DIVMSQSPSSLAVSAGERVTMSCKSSQSLLNSRTRKNYLAWYQQKPGQSPKLLIYWASTRESGVPDRFTGSGSGTDFTLTISSVQAEDLAVYYCIQSYHLRTFGGGTKLEIK
